Results reported in the supplement of paper PMC10567573.

B1: TRIB1 (parent)
chain: SYVRSRKRLREEEAARLFKQIVSA

Variants of: B1
Test: protein stability index of a GFP-peptide fusion (GPS, HEK-293T) (PSI 1-6); higher = more stable
Conditions: c terminus: a fixed tail appended
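Further: lentivirally expressed fusions sorted by FACS into six bins by GFP to DsRed ratio, PSI derived from sequencing read proportions per bin multiplied by bin number.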

Point of comparison: SYVRSRPRLREEEAARLFKQIVSA [K7P], protein stability index 2.03. Against it:
- SYVRSRKRLWEEEAARLFKQIVSA [R10W] — higher, 2.12
- SYVRSRKRLCEEEAARLFKQIVSA [R10C] — lower, 1.5
- SYVRSRKRLAEEEAARLFKQIVSA [R10A] — higher, 2.94
- SYVRSRKRLYEEEAARLFKQIVSA [R10Y] — lower, 1.95
- SYVRSRKRLLEEEAARLFKQIVSA [R10L] — higher, 2.23
- SYVRSRKRLFEEEAARLFKQIVSA [R10F] — higher, 2.04
- SYVRSRKRLDEEEAARLFKQIVSA [R10D] — higher, 2.28
- SYVRSRKRLEEEEAARLFKQIVSA [R10E] — higher, 2.27
- SYVRSRKRLMEEEAARLFKQIVSA [R10M] — lower, 1.35
- SYVRSRKRLSEEEAARLFKQIVSA [R10S] — higher, 2.34
- SYVRSRKRLREELAARLFKQIVSA [E13L] — higher, 2.54
- SYVRSRKRLREEGAARLFKQIVSA [E13G] — higher, 3.21
- SYVRSRKRLREENAARLFKQIVSA [E13N] — higher, 2.53
- SYVRSRKRLREECAARLFKQIVSA [E13C] — higher, 2.05
- SYVRSRKRLREEFAARLFKQIVSA [E13F] — higher, 2.37
- SYVRSRKRLREEYAARLFKQIVSA [E13Y] — higher, 2.14
- SYVRSRKRLREESAARLFKQIVSA [E13S] — higher, 2.05
- SYVRSRKRLREERAARLFKQIVSA [E13R] — higher, 2.85
- SYVRSRKRLREEKAARLFKQIVSA [E13K] — higher, 2.94
- SYVRSRKRLREEQAARLFKQIVSA [E13Q] — higher, 2.5
- SYVRSRKRLREEDAARLFKQIVSA [E13D] — lower, 1.73
- SYVRSRKRLREEVAARLFKQIVSA [E13V] — lower, 1.65
- SYVRSRKRLREEPAARLFKQIVSA [E13P] — higher, 2.41
- SYVRSRKRLREEMAARLFKQIVSA [E13M] — higher, 2.21
- SYVRSRKRLREETAARLFKQIVSA [E13T] — lower, 1.74
- SYVRSRKRLREEAAARLFKQIVSA [E13A] — lower, 1.27
- SYVRSRKRLREEIAARLFKQIVSA [E13I] — higher, 2.52
- SYVRSRKRLREEHAARLFKQIVSA [E13H] — higher, 2.47
- SYVRSRKRLREVEAARLFKQIVSA [E12V] — lower, 1.33
- SYVRSRKRLRELEAARLFKQIVSA [E12L] — lower, 2
- SYVRSRKRLREHEAARLFKQIVSA [E12H] — higher, 3.01
- SYVRSRKRLRETEAARLFKQIVSA [E12T] — the same, 2.03
- SYVRSRKRLREYEAARLFKQIVSA [E12Y] — higher, 2.37
- SYVRSRKRLREKEAARLFKQIVSA [E12K] — higher, 2.27
- SYVRSRKRLRENEAARLFKQIVSA [E12N] — higher, 2.61
- SYVRSRKRLREMEAARLFKQIVSA [E12M] — higher, 2.48
- SYVRSRKRLRECEAARLFKQIVSA [E12C] — lower, 1.76
- SYVRSRKRLREPEAARLFKQIVSA [E12P] — the same, 2.03
- SYVRSRKRLREAEAARLFKQIVSA [E12A] — higher, 2.16
- SYVRSRKRLREDEAARLFKQIVSA [E12D] — lower, 1.9
- SYVRSRKRLREQEAARLFKQIVSA [E12Q] — lower, 1.98
- SYVRSRKRLREIEAARLFKQIVSA [E12I] — higher, 2.65
- SYVRSAKRLREEEAARLFKQIVSA [R6A] — lower, 1.89
- SYVRSDKRLREEEAARLFKQIVSA [R6D] — higher, 2.99
- SYVRSFKRLREEEAARLFKQIVSA [R6F] — lower, 1.42
- SYVRSWKRLREEEAARLFKQIVSA [R6W] — lower, 1.97
- SYVRSMKRLREEEAARLFKQIVSA [R6M] — lower, 1.54
- SYVRSVKRLREEEAARLFKQIVSA [R6V] — lower, 1.95
- SYVRSSKRLREEEAARLFKQIVSA [R6S] — higher, 2.21
- SYVRSQKRLREEEAARLFKQIVSA [R6Q] — lower, 1.88
- SYVRSPKRLREEEAARLFKQIVSA [R6P] — higher, 2.66
- SYVRSYKRLREEEAARLFKQIVSA [R6Y] — higher, 2.23
- SYVRSIKRLREEEAARLFKQIVSA [R6I] — lower, 2
- SYVRSGKRLREEEAARLFKQIVSA [R6G] — lower, 1.72
- SYVRSHKRLREEEAARLFKQIVSA [R6H] — higher, 2.33
- SYVRSTKRLREEEAARLFKQIVSA [R6T] — higher, 2.07
- SYVRSLKRLREEEAARLFKQIVSA [R6L] — lower, 1.85
- SYVRSNKRLREEEAARLFKQIVSA [R6N] — lower, 1.81
- SYVRSKKRLREEEAARLFKQIVSA [R6K] — higher, 2.63
- SYVRSCKRLREEEAARLFKQIVSA [R6C] — lower, 1.85
- SYVRSRTRLREEEAARLFKQIVSA [K7T] — higher, 2.52
- SYVRSRIRLREEEAARLFKQIVSA [K7I] — lower, 1.86
- SYVRSRDRLREEEAARLFKQIVSA [K7D] — higher, 3.05
- SYVRSRHRLREEEAARLFKQIVSA [K7H] — lower, 1.58
- SYVRSRNRLREEEAARLFKQIVSA [K7N] — higher, 2.15
- SYVRSRRRLREEEAARLFKQIVSA [K7R] — higher, 2.11
- SYVRSRSRLREEEAARLFKQIVSA [K7S] — higher, 2.53
- SYVRSRMRLREEEAARLFKQIVSA [K7M] — higher, 2.38
- SYVRSRWRLREEEAARLFKQIVSA [K7W] — lower, 1.62
- SYVRSRARLREEEAARLFKQIVSA [K7A] — higher, 2.06
- SYVRSRFRLREEEAARLFKQIVSA [K7F] — higher, 2.12
- SYVRSRCRLREEEAARLFKQIVSA [K7C] — higher, 2.34
- SYVRSRQRLREEEAARLFKQIVSA [K7Q] — lower, 2.02
- SYVRSRYRLREEEAARLFKQIVSA [K7Y] — lower, 1.93
- SYVRSRERLREEEAARLFKQIVSA [K7E] — higher, 2.5
- SYVRSRGRLREEEAARLFKQIVSA [K7G] — higher, 2.99
- SYVRSRKRLRWEEAARLFKQIVSA [E11W] — higher, 2.05
- SYVRSRKRLRKEEAARLFKQIVSA [E11K] — higher, 2.25
- SYVRSRKRLRFEEAARLFKQIVSA [E11F] — higher, 3.54
- SYVRSRKRLRNEEAARLFKQIVSA [E11N] — higher, 2.13
- SYVRSRKRLRDEEAARLFKQIVSA [E11D] — higher, 2.17
- SYVRSRKRLRREEAARLFKQIVSA [E11R] — lower, 1.54
- SYVRSRKRLRIEEAARLFKQIVSA [E11I] — lower, 1.4
- SYVRSRKRLRGEEAARLFKQIVSA [E11G] — lower, 1.33
- SYVRSRKRLRTEEAARLFKQIVSA [E11T] — higher, 2.44
- SYVRSRKRLRQEEAARLFKQIVSA [E11Q] — lower, 1.9
- SYVRSRKRLRHEEAARLFKQIVSA [E11H] — higher, 2.41
- SYVRSRKRLRMEEAARLFKQIVSA [E11M] — lower, 1.66
- SYVRSRKRLRVEEAARLFKQIVSA [E11V] — lower, 1.75
- SYVRSRKRLRSEEAARLFKQIVSA [E11S] — higher, 2.69
- SYVRSRKRLRPEEAARLFKQIVSA [E11P] — lower, 1.85
- SYVRSRKRLRAEEAARLFKQIVSA [E11A] — higher, 2.05
- SYVRSRKRLRYEEAARLFKQIVSA [E11Y] — lower, 1.22
